B1: AZIN2 peptide 1-16 (Antizyme inhibitor 2), 16-mer library wild type / NSP3 ADRP (ORF1ab Nsp3b ADRP, residues 1023-1192) (parent complex)
chain 1: MAGYLSESDFVMVEEG
chain 2: not shown
B2: NOTCH4 peptide 1606-1621 (Neurogenic locus notch homolog protein 4), 16-mer library wild type / NSP9 (ORF1ab Nsp9, residues 4141-4253) (parent complex)
chain 1: QGAWLGAPEPWEPLLD
chain 2: NNELSPVALRQMSCAAGTTQTACTDDNALAYYNTTKGGRFVLALLSDLQDLKWARFPKSDGTGTIYTELEPPCRFVTDTPKGPKVKYLYFIKGLNNLNRGMVLGSLAATVRLQ

Variants of: B1
Assay: bait immobilised on MaxiSorp plates (10 µg), library pre-cleared on GST, 2 h binding at 4 °C, five washes; one round per day, days 1-4; value from days 2 and 3

Variant	screen value
chain 1 V11T	0.000107 average fractional NGS count over selection days 2 and 3 (reads of this peptide / all reads for the bait, averaged over …
chain 1 V11H	7.39e-05 average fractional NGS count over selection days 2 and 3 (reads of this peptide / all reads for the bait, averaged over …
chain 1 M12S	0.000927 average fractional NGS count over selection days 2 and 3 (reads of this peptide / all reads for the bait, averaged over …

Variants of: B2
Assay: as above

Variant	screen value
chain 1 E9Y	0.000233 average fractional NGS count over selection days 2 and 3 (reads of this peptide / all reads for the bait, averaged over …
chain 1 E9L	0.0321 average fractional NGS count over selection days 2 and 3 (reads of this peptide / all reads for the bait, averaged over …
chain 1 E9T	0.00217 average fractional NGS count over selection days 2 and 3 (reads of this peptide / all reads for the bait, averaged over …
chain 1 E9A	0.000237 average fractional NGS count over selection days 2 and 3 (reads of this peptide / all reads for the bait, averaged over …
chain 1 E9K	0.000266 average fractional NGS count over selection days 2 and 3 (reads of this peptide / all reads for the bait, averaged over …
chain 1 E9I	0.00116 average fractional NGS count over selection days 2 and 3 (reads of this peptide / all reads for the bait, averaged over …
chain 1 E9G	0.00198 average fractional NGS count over selection days 2 and 3 (reads of this peptide / all reads for the bait, averaged over …
chain 1 E9W	0.00272 average fractional NGS count over selection days 2 and 3 (reads of this peptide / all reads for the bait, averaged over …
chain 1 L14T	0.00105 average fractional NGS count over selection days 2 and 3 (reads of this peptide / all reads for the bait, averaged over …
chain 1 L14M	0.00305 average fractional NGS count over selection days 2 and 3 (reads of this peptide / all reads for the bait, averaged over …
chain 1 L14A	0.00317 average fractional NGS count over selection days 2 and 3 (reads of this peptide / all reads for the bait, averaged over …
chain 1 L14Y	0.00146 average fractional NGS count over selection days 2 and 3 (reads of this peptide / all reads for the bait, averaged over …
chain 1 P10R	0.00113 average fractional NGS count over selection days 2 and 3 (reads of this peptide / all reads for the bait, averaged over …
chain 1 P10H	0.000471 average fractional NGS count over selection days 2 and 3 (reads of this peptide / all reads for the bait, averaged over …
chain 1 P10W	0.00034 average fractional NGS count over selection days 2 and 3 (reads of this peptide / all reads for the bait, averaged over …
chain 1 P10K	0.00223 average fractional NGS count over selection days 2 and 3 (reads of this peptide / all reads for the bait, averaged over …
chain 1 P10S	0.000591 average fractional NGS count over selection days 2 and 3 (reads of this peptide / all reads for the bait, averaged over …
chain 1 P10N	0.000425 average fractional NGS count over selection days 2 and 3 (reads of this peptide / all reads for the bait, averaged over …
chain 1 P10M	0.0078 average fractional NGS count over selection days 2 and 3 (reads of this peptide / all reads for the bait, averaged over …
chain 1 P10L	0.00033 average fractional NGS count over selection days 2 and 3 (reads of this peptide / all reads for the bait, averaged over …
chain 1 A7D	0.00053 average fractional NGS count over selection days 2 and 3 (reads of this peptide / all reads for the bait, averaged over …
chain 1 A7E	0.000192 average fractional NGS count over selection days 2 and 3 (reads of this peptide / all reads for the bait, averaged over …
chain 1 A7H	0.0144 average fractional NGS count over selection days 2 and 3 (reads of this peptide / all reads for the bait, averaged over …
chain 1 A7Q	0.00107 average fractional NGS count over selection days 2 and 3 (reads of this peptide / all reads for the bait, averaged over …

Variant	screen value
chain 1 A7G	0.00198 average fractional NGS count over selection days 2 and 3 (reads of this peptide / all reads for the bait, averaged over …
chain 1 A7R	0.000186 average fractional NGS count over selection days 2 and 3 (reads of this peptide / all reads for the bait, averaged over …
chain 1 W4Y	0.000452 average fractional NGS count over selection days 2 and 3 (reads of this peptide / all reads for the bait, averaged over …
chain 1 E12W	0.0479 average fractional NGS count over selection days 2 and 3 (reads of this peptide / all reads for the bait, averaged over …
chain 1 E12Y	0.00153 average fractional NGS count over selection days 2 and 3 (reads of this peptide / all reads for the bait, averaged over …
chain 1 E12G	0.00333 average fractional NGS count over selection days 2 and 3 (reads of this peptide / all reads for the bait, averaged over …
chain 1 E12L	0.00277 average fractional NGS count over selection days 2 and 3 (reads of this peptide / all reads for the bait, averaged over …
chain 1 E12Q	0.00173 average fractional NGS count over selection days 2 and 3 (reads of this peptide / all reads for the bait, averaged over …
chain 1 E12T	0.00258 average fractional NGS count over selection days 2 and 3 (reads of this peptide / all reads for the bait, averaged over …
chain 1 E12H	8.76e-05 average fractional NGS count over selection days 2 and 3 (reads of this peptide / all reads for the bait, averaged over …
chain 1 A3Y	0.00272 average fractional NGS count over selection days 2 and 3 (reads of this peptide / all reads for the bait, averaged over …
chain 1 A3F	0.00137 average fractional NGS count over selection days 2 and 3 (reads of this peptide / all reads for the bait, averaged over …
chain 1 A3M	0.0101 average fractional NGS count over selection days 2 and 3 (reads of this peptide / all reads for the bait, averaged over …
chain 1 Q1L	0.000598 average fractional NGS count over selection days 2 and 3 (reads of this peptide / all reads for the bait, averaged over …
chain 1 Q1T	0.000204 average fractional NGS count over selection days 2 and 3 (reads of this peptide / all reads for the bait, averaged over …
chain 1 Q1E	0.00488 average fractional NGS count over selection days 2 and 3 (reads of this peptide / all reads for the bait, averaged over …
chain 1 Q1Y	0.00151 average fractional NGS count over selection days 2 and 3 (reads of this peptide / all reads for the bait, averaged over …
chain 1 Q1A	0.00674 average fractional NGS count over selection days 2 and 3 (reads of this peptide / all reads for the bait, averaged over …
chain 1 Q1H	0.000824 average fractional NGS count over selection days 2 and 3 (reads of this peptide / all reads for the bait, averaged over …
chain 1 Q1I	0.000162 average fractional NGS count over selection days 2 and 3 (reads of this peptide / all reads for the bait, averaged over …
chain 1 P8E	0.000231 average fractional NGS count over selection days 2 and 3 (reads of this peptide / all reads for the bait, averaged over …
chain 1 P8F	0.000628 average fractional NGS count over selection days 2 and 3 (reads of this peptide / all reads for the bait, averaged over …
chain 1 P8I	0.000952 average fractional NGS count over selection days 2 and 3 (reads of this peptide / all reads for the bait, averaged over …
chain 1 P8M	0.00044 average fractional NGS count over selection days 2 and 3 (reads of this peptide / all reads for the bait, averaged over …

Variant	screen value
chain 1 P8S	0.00076 average fractional NGS count over selection days 2 and 3 (reads of this peptide / all reads for the bait, averaged over …
chain 1 P13W	0.000306 average fractional NGS count over selection days 2 and 3 (reads of this peptide / all reads for the bait, averaged over …
chain 1 P13Y	0.000242 average fractional NGS count over selection days 2 and 3 (reads of this peptide / all reads for the bait, averaged over …
chain 1 P13E	0.000762 average fractional NGS count over selection days 2 and 3 (reads of this peptide / all reads for the bait, averaged over …
chain 1 P13G	0.00615 average fractional NGS count over selection days 2 and 3 (reads of this peptide / all reads for the bait, averaged over …
chain 1 P13Q	0.000154 average fractional NGS count over selection days 2 and 3 (reads of this peptide / all reads for the bait, averaged over …
chain 1 P13K	0.00839 average fractional NGS count over selection days 2 and 3 (reads of this peptide / all reads for the bait, averaged over …
chain 1 P13I	0.00354 average fractional NGS count over selection days 2 and 3 (reads of this peptide / all reads for the bait, averaged over …
chain 1 P13H	0.000211 average fractional NGS count over selection days 2 and 3 (reads of this peptide / all reads for the bait, averaged over …
chain 1 L15R	0.000322 average fractional NGS count over selection days 2 and 3 (reads of this peptide / all reads for the bait, averaged over …
chain 1 L15F	0.000114 average fractional NGS count over selection days 2 and 3 (reads of this peptide / all reads for the bait, averaged over …
chain 1 L15D	0.000339 average fractional NGS count over selection days 2 and 3 (reads of this peptide / all reads for the bait, averaged over …
chain 1 L15I	0.0135 average fractional NGS count over selection days 2 and 3 (reads of this peptide / all reads for the bait, averaged over …
chain 1 L15P	0.000417 average fractional NGS count over selection days 2 and 3 (reads of this peptide / all reads for the bait, averaged over …
chain 1 L5I	0.000857 average fractional NGS count over selection days 2 and 3 (reads of this peptide / all reads for the bait, averaged over …
chain 1 G6A	9.6e-05 average fractional NGS count over selection days 2 and 3 (reads of this peptide / all reads for the bait, averaged over …
chain 1 G6P	0.00151 average fractional NGS count over selection days 2 and 3 (reads of this peptide / all reads for the bait, averaged over …
chain 1 W11M	0.0273 average fractional NGS count over selection days 2 and 3 (reads of this peptide / all reads for the bait, averaged over …
chain 1 W11E	0.00215 average fractional NGS count over selection days 2 and 3 (reads of this peptide / all reads for the bait, averaged over …
chain 1 W11D	0.000384 average fractional NGS count over selection days 2 and 3 (reads of this peptide / all reads for the bait, averaged over …
chain 1 W11S	0.000466 average fractional NGS count over selection days 2 and 3 (reads of this peptide / all reads for the bait, averaged over …
chain 1 W11H	0.00345 average fractional NGS count over selection days 2 and 3 (reads of this peptide / all reads for the bait, averaged over …
chain 1 W11T	0.000139 average fractional NGS count over selection days 2 and 3 (reads of this peptide / all reads for the bait, averaged over …
chain 1 W11L	0.0119 average fractional NGS count over selection days 2 and 3 (reads of this peptide / all reads for the bait, averaged over …
